Paper PMC8041466

Experiments:
[1] = target: Cytotect (HCMV-IgG hyperimmunoglobulin preparation, human plasma pool, polyclonal IgG) (human); experiment: flow cytometry on cells; same set-up; pairs of the vFcγR on infected cells with Cytotect IgG
[2] = target: Rituximab (humanized anti-hCD20 IgG1) (human); experiment: flow cytometry on cells; same set-up; pairs of the CD4-tailed vFcγR on the cells with Rtx
Sequence of Rituximab (humanized anti-hCD20 IgG1) (human) (heavy, as listed by the source, chain 1 of 2): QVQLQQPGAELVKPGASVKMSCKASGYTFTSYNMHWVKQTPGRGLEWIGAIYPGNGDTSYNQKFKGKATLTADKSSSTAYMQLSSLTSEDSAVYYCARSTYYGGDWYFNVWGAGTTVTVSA
Sequence of Rituximab (humanized anti-hCD20 IgG1) (human) (light, as listed by the source, chain 2 of 2): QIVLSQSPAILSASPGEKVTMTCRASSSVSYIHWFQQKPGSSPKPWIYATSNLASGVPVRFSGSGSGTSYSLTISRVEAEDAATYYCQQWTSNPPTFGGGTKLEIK

| Substance | percent reduction of FcγRIII binding [1] [%] | percent reduction of FcγRIII binding [2] [%] |
| --- | --- | --- |
| gp68 natively expressed on HCMV AD169/pBAC2 mutant-infected MRC-5 cells (from UniProt P16739 24-345) (natural protein) | 60 | – |
| gp68-CD4 (gp68 with the transmembrane and cytosolic domains of human CD4) | – | 60 |
